Measured values from the RNAGym collection of RNA variant scans (doi:10.7554/elife.90254).

B1: OR4K15 (parent)
chain: GUUAACGGUCAUAGGCCAUGGAAACUAGGAGCACCAUUUCGCUGCCAGUGAAGAAAUGAACAAAGAAAAUCUGGGCCAGGCAGGCAUCAAAAGAAAUAGUCUUGCGCUCAACCAGAAAGUCUGUAAUCAUUUUAAGGGUA

Variants of: B1
Test: self-cleavage, relative activity (ratio to wild type); higher = more cleavage; in vitro, sequencing; the parent is a self-cleaving ribozyme

**Q.** Which self-cleavage does the source give for GUUAACGGUCAUAGGCCAAGGAAACUAGGAGCACCAUUUCGCUGCCAGUGAAGAAAUGAACAAAGAAAAUCUGGGCCAGGCAGGCAUCAAAAGAAAUAGUCUUGCGCUCAACCAGUAAGUCUGUAAUCAUUUUAAGGGUA here?
**A.** The self-cleavage was 0.43.

**Q.** Which self-cleavage does the source give for GUUAACGGUCAUAGGCCAUGGAAACUAGGAGCACCAUUUCGCUGCCAGUGAAGAAAUGAACAAAGAGAAUCUGGGCCAGGCAGGCAUCAAAAGAAAUAGUCUUGCGCUCAACCAGAAAGCCUGUAAUCAUUUUAAGGGUA here?
**A.** Its self-cleavage is 0.83.

**Q.** For GUUAACGGUCAUAGGCCAUGGAAACUAGGAGCACCAUCUCGCUGCCAGUGAAGAAAUGAACAAAGAAAAUCUGGGCCAGGCAGGCAUCAGAAGAAAUAGUCUUGCGCUCAACCAGAAAGUCUGUAAUCAUUUUAAGGGUA, which self-cleavage is on record?
**A.** The self-cleavage was 1.4.

**Q.** Which self-cleavage does the source give for GUUAACGGUCAUAGGCCAUGGAAACUAGGAGCGCCAUUUCGCUGCCAGUGAAGAAAUGAACAAAGAAAAUCUGGGCCAGGCAGGCAUCAAAAGAAGUAGUCUUGCGCUCAACCAGAAAGUCUGUAAUCAUUUUAAGGGUA here?
**A.** Its self-cleavage is 0.96.

**Q.** Which self-cleavage does the source give for GUUAACGGUCAUAGGCCAUGGAAACUAGGAGCACCAUUUCGCUGCCAGUGAAGAAAUGAACAAAGAAAAUCUGGGCCAGGCAGGCAUCAAAAGAAGUAGUCUUGCGCUCAACCAGAAAGUCUGUAAUCAUUUUAAGGGUA here?
**A.** The self-cleavage was 1.37.

**Q.** With GUUAACGGUCAUAGGCCAUGGAAACAAGGAGCACCAUUUCGCUGCCAGUGAAGAAAGGAACAAAGAAAAUCUGGGCCAGGCAGGCAUCAAAAGAAAUAGUCUUGCGCUCAACCAGAAAGUCUGUAAUCAUUUUAAGGGUA as the variant, how does the self-cleavage read?
**A.** Its self-cleavage is 0.97.

**Q.** For GUUAACGGUCAUAGGCCAUGGAAACUAGGAGCACCAUUUCGCUGCCAGUGAAGAAAUGAACAAAGAAAAUCUGGGCCAGGCGGGCAUCAAAAGAAAUAGUCUUGCGCUCAACCAGAAAGUCUGUAAUCAUCUUAAGGGUA, which self-cleavage is on record?
**A.** The self-cleavage was 0.45.

**Q.** Which self-cleavage does the source give for GUUAACGGUCAUACGCCAUGGAAACUAGGGGCACCAUUUCGCUGCCAGUGAAGAAAUGAACAAAGAAAAUCUGGGCCAGGCAGGCAUCAAAAGAAAUAGUCUUGCGCUCAACCAGAAAGUCUGUAAUCAUUUUAAGGGUA here?
**A.** The self-cleavage was 1.66.

**Q.** With GGUAACGGUCAUAGGCCAUGGAAACUAGGAGCACCAUUUCGCUGCCAGUGAAGAAAUGAACAAAGAAAAUCUGGGCCAGGCAGGCAUCAAAAGAAAUAGUCUCGCGCUCAACCAGAAAGUCUGUAAUCAUUUUAAGGGUA as the variant, how does the self-cleavage read?
**A.** Its self-cleavage is 0.85.

**Q.** With GUUAACGGUCAUAGGCCAUGGAAACUAGGAGCACCAUUUCGCUGCCAGUGAAGAAAUGAACAAAGAAAAUCUGGGCCAGGCAGGCAUCAAAAGAAAUAGUCUUGCGCUCAACCAGAAAGUCUGUAAUCACUUCAAGGGUA as the variant, how does the self-cleavage read?
**A.** The self-cleavage was 1.54.

**Q.** Which self-cleavage does the source give for GUUAACGGUCAUAGGCCAUGGAAACUAGGAGCACCAUUUCGCUGCCAGUGAAGAAAUGAACAAAGAAAGUCUGGGCCAGGCAGGCAUCAAAAGAAGUAGUCUUGCGCUCAACCAGAAAGUCUGUAAUCAUUUUAAGGGUA here?
**A.** Its self-cleavage is 1.52.

**Q.** For GUUAACGGUCAUAGGCCAUGGAAACUAGGAGCACCAUUUCGCUGCCAGUGAAGAAAUGAACAAAGAAAAUCUGGGCCAGGCAGGCAACAAAAGAAAUAGUCUUGCGCUCAACCAGAGAGUCUGUAAUCAUUUUAAGGGUA, which self-cleavage is on record?
**A.** Its self-cleavage is 1.12.

**Q.** For GUUAACGGUCAUAGGACGUGGAAACUAGGAGCACCAUUUCGCUGCCAGUGAAGAAAUGAACAAAGAAAAUCUGGGCCAGGCAGGCAUCAAAAGAAAUAGUCUUGCGCUCAACCAGAAAGUCUGUAAUCAUUUUAAGGGUA, which self-cleavage is on record?
**A.** The self-cleavage was 1.18.

**Q.** For GUUAACGGUCAUAGGCCAUGGAAACUAGGAUCACCAUUUCGCUGCCGGUGAAGAAAUGAACAAAGAAAAUCUGGGCCAGGCAGGCAUCAAAAGAAAUAGUCUUGCGCUCAACCAGAAAGUCUGUAAUCAUUUUAAGGGUA, which self-cleavage is on record?
**A.** Its self-cleavage is 1.05.

**Q.** For GUUAACGGUCUUAGGCCAUGGAAACUAGGAGCACCAUUUCGCUGCCAGUGAAGAAAUGAACAAAGAAAAUCUGGGCCAGGCAGGCAUCAAAAGAAAUAGUCUUGCGCGCAACCAGAAAGUCUGUAAUCAUUUUAAGGGUA, which self-cleavage is on record?
**A.** Its self-cleavage is 0.08.

**Q.** With GUUAACGGUCAUAGGCCAUGGAGACUAGGAGCACCAUUUCGCUGCCAGUGAAGAAAUGAACAAAGAAAAUCUGGGCCAGGCAGGCAUCAAAAGAAAUAGUCUUGCGCUCAACCAGAAAGUCUGUAAUCAUUUUAUGGGUA as the variant, how does the self-cleavage read?
**A.** The self-cleavage was 1.78.

**Q.** For GUUAACGGACAUAGGCCAUGGAAACUAGGAGCACCUUUUCGCUGCCAGUGAAGAAAUGAACAAAGAAAAUCUGGGCCAGGCAGGCAUCAAAAGAAAUAGUCUUGCGCUCAACCAGAAAGUCUGUAAUCAUUUUAAGGGUA, which self-cleavage is on record?
**A.** The self-cleavage was 1.2.

**Q.** For GUUAACGGUCAUAGGCCAUGGAAACUAGGAGCACCAUUUCGCUGCCAGUGAAGAAAUGAACAAAGAAAAUCUGGGCCUGGCAGGCAUCAAAAGAAAUAGUCUUGCGCUCAACCAGAAAGUCUGUAAUCACUUUAAGGGUA, which self-cleavage is on record?
**A.** The self-cleavage was 0.2.

**Q.** Which self-cleavage does the source give for GUUAACGGUCAUAGGCCGUGGAAACUAGGAGCACCAUUUCGCUGCCAGUGAAGAAAUGAACUAAGAAAAUCUGGGCCAGGCAGGCAUCAAAAGAAAUAGUCUUGCGCUCAACCAGAAAGUCUGUAAUCAUUUUAAGGGUA here?
**A.** Its self-cleavage is 2.16.

**Q.** Which self-cleavage does the source give for GUUAACGGUCAUAGGCCAUGGAAACUAGGAGCACCAUUUCGCUGCCAGUGAAGAAAUGAACAAAGAAAAUCUGGGCCAGGCAGGCAUCAAUGGAAAUAGUCUUGCGCUCAACCAGAAAGUCUGUAAUCAUUUUAAGGGUA here?
**A.** The self-cleavage was 1.04.
